One data set concerns the target SphK1 (Homo sapiens, UniProt Q9NYA1). The note with it: read-out: Km with respect to sphingosine, SphK1, previously reported; cited from earlier work.
Substrate in data set [1]: Nc1ncnc2c1ncn2[C@@H]1O[C@H](COP(=O)(O)OP(=O)(O)OP(=O)(O)O)[C@@H](O)[C@H]1O
Kind of data set: purified protein, by the assay type. The conditions noted are these: other: FlashPlate; 5–10 μM sphingosine, ATP 0–600 μM; 37.0 °C.

Substrate in data set [2]: CCCCCCCCCCCCC/C=C/[C@@H](O)[C@@H](N)CO
Kind of data set: 96-well FlashPlate SphK assay, SphK2. The note with it: other: FlashPlate; ATP fixed at 250 μM, sphingosine 0–50 μM; 37.0 °C. Format: biochemical.

Substrate in data set [3]: CCCCCCCCc1ccc(CCC(N)(CO)CO)cc1
Kind of data set: 96-well FlashPlate SphK assay, SphK2. Format: biochemical. The conditions noted are these: other: FlashPlate; FTY720 as selective SphK2 substrate; 37.0 °C.

We go through three molecules from publication PMC3049835 (Analytical biochemistry, 2011).

The Km is the substrate concentration at which the rate is half of its maximum. `CCCCCCCCCCCCC/C=C/[C@@H](O)[C@@H](N)CO` [sphingosine, D-erythro-sphingosine]: on SphK1, the Km is 5 to 17 µM.

B1: SphK1 (Homo sapiens) (protein)
chain: MSAQVLGFLRSWTPLPLAAPRGPAAAGNDAGAPAATAPGGEGEPHSRPCDARLGSTDKELKAGAAATGSAPTAPGTPWQREPRVEVMDPAGGPRGVLPRPCRVLVLLNPRGGKGKALQLFRSHVQPLLAEAEISFTLMLTERRNHARELVRSEELGRWDALVVMSGDGLMHEVVNGLMERPDWETAIQKPLCSLPAGSGNALAASLNHYAGYEQVTNEDLLTNCTLLLCRRLLSPMNLLSLHTASGLRLFSVLSLAWGFIADVDLESEKYRRLGEMRFTLGTFLRLAALRTYRGRLAYLPVGRVGSKTPASPVVVQQGPVDAHLVPLEEPVPSHWTVVPDEDFVLVLALLHSHLGSEMFAAPMGRCAAGVMHLFYVRAGVSRAMLLRLFLAMEKGRHMEYECPYLVYVPVVAFRLEPKDGKGVFAVDGELMVSEAVQGQVHPNYFWMVSGCVEPPPSWKPQQMPPPEEPL
In the case of B1, the Km in data set [1] worked out at 125 µM.

B2: SphK2 (Homo sapiens) (protein)
chain: MNGHLEAEEQQDQRPDQELTGSWGHGPRSTLVRAKAMAPPPPPLAASTPLLHGEFGSYPARGPRFALTLTSQALHIQRLRPKPEARPRGGLVPLAEVSGCCTLRSRSPSDSAAYFCIYTYPRGRRGARRRATRTFRADGAATYEENRAEAQRWATALTCLLRGLPLPGDGEITPDLLPRPPRLLLLVNPFGGRGLAWQWCKNHVLPMISEAGLSFNLIQTERQNHARELVQGLSLSEWDGIVTVSGDGLLHEVLNGLLDRPDWEEAVKMPVGILPCGSGNALAGAVNQHGGFEPALGLDLLLNCSLLLCRGGGHPLDLLSVTLASGSRCFSFLSVAWGFVSDVDIQSERFRALGSARFTLGTVLGLATLHTYRGRLSYLPATVEPASPTPAHSLPRAKSELTLTPDPAPPMAHSPLHRSVSDLPLPLPQPALASPGSPEPLPILSLNGGGPELAGDWGGAGDAPLSPDPLLSSPPGSPKAALHSPVSEGAPVIPPSSGLPLPTPDARVGASTCGPPDHLLPPLGTPLPPDWVTLEGDFVLMLAISPSHLGADLVAAPHARFDDGLVHLCWVRSGISRAALLRLFLAMERGSHFSLGCPQLGYAAARAFRLEPLTPRGVLTVDGEQVEYGPLQAQMHPGIGTLLTGPPGCPGREP
Turning to B2, the Km was 79 µM in data set [1], 6 µM in data set [2] and 22 µM in data set [3].
